The results in this text go back to PMC5961942.

The target of this experiment is trimeric PD-L1 trap (mouse) (UniProt Q02242). The experiment in a line: SDS-PAGE without reducing agent.

“trimeric PD-L1 trap (from UniProt Q02242 21-150; P51942 458-500) (designed binder)” had a stoichiometry N of 3.
